Like-named read-outs stand apart in the source and are kept apart here.
B1: Redβ: Redβ SSAP from Enterobacteria phage λ, SEQ ID NO: 474 (protein)
chain: MSTALATLAGKLAERVGMDSVDPQELITTLRQTAFKCDASDAQFIALLIVANQYGLNPWTKEIYAFPDKQNGIVPVVGVDGWSRIINENQQFDGMDFEQDNESCTCRIYRKDRNHPICVTEWMDECRREPFKTREGREITGPWQSHPKRMLRHKAMIQCARLAFGFAGIYDKDEAERIVENTAYTAERQPERDITPVNDETMQEINTLLIALDKTWDDDLLPLCSQIFRRDIRASSELTQAEAVKALGFLKQKATEQKVAA
modifications: Bacteriophage Lambda
B2: PapRecT: SSAP from Pseudomonas aeruginosa, SEQ ID NO: 24, UniParc ID: UPI0001E9E6CB (protein, listed as Pseudomonas aeruginosa)
chain: MGTALTPLLTKFATRYEMGTTPEEVANTLKQTCFKGQVNDSQMVALLIVADQYKLNPFTKELYAFPDKNNGIVPVVGVDGWARIINENPQFDGMEFSMDQQGTECTCKIYRKDRSHAISATEYMAECKRNTQPWQSHPRRMLRHKAMIQCARLAFGFAGIYDQDEAERIVERDVTPAEQYEDVSEAICLIKDSPTMEDLQAAFSNAWKAYKTKGARDQLTAAKDQRKKELLDAPIDVEFEETGDDRAA
B3: CspRecT: RecT SSAP (UniParc ID: UPI0001837D7F) from a phage of Collinsella stercoris (protein)
chain: MNQIVKFTDDSGLAVQVTPDDVRRYICENATEKEVGLFLQLCQTQRLNPFVKDAYLVKYGGAPASMITSYQVFNRRACRDANYDGIKSGVVVLRDGDVVHKRGAACYKKAGEELIGGWAEVRFKDGRETAYAEVALDDYSTGKSNWAKMPGVMIEKCAKAAAWRLAFPDTFQGMYAAEEMDQAQQPEQVRAQAEQPVDLQPIRELFKPYCEHFGITPAEGMTAVCGAVGAEGMHSMTEQQARRARAWMEEEMAAPAVEAEYEVVDEGEVF
modifications: Collinsella stercoris DSM 13279

Legend:
E. coli = experiment: lacZ recombineering assay (blue/white screening); type: cell-based, Escherichia coli; settings: for Editing efficiency, 18-bp consecutive mismatches into lacZ / Editing efficiency, 30-bp consecutive mismatches into lacZ: wild type E. coli MG1655
Protocol: Top individual SSAPs (SEQ ID NO: 157 and SEQ ID NO: 24, using Redβ as a control) were expressed in E. coli from a lambda pL promoter. The mutational profile of edits are shown in FIG. 5, including the efficiency of introducing 18-nucleotide (NT) and 30-NT mismatches. Efficiency was measured by disruption of LacZ, plating on X-gal, and counting the number of blue vs. white colonies. In contrast to FIG. 1A, a high over-performance by the SSAP (SEQ ID NO: 157) alone was observed when it was driven off of a more efficient promoter.
To maximize the phylogenetic reach and applicability of these new tools, CspRecT was characterized, alongside Redβ and PapRecT, subcloned into the pORTMAGE plasmid system (FIGS. 10A-10B, Addgene accession: #120418). This plasmid contains a broad-host RSF1010 origin of replication, establishes tight regulation of protein expression with an m-toluic-acid inducible expression system, and disables MMR by transient overexpression of a dominant-negative mutant of E. coli MutL (MutL E32K) (Nyerges et al., Proc. Natl. Acad. Sci. U.S.A. 113, 2502-2507 (2016)), which makes it possible to establish high-efficiency editing without modification of the host genome. […] This pORTMAGE plasmid expressing CspRecT was referred to as pORTMAGE-Ec1 (Addgene).
Oligos were designed to introduce I) premature STOP codons into lacZ for E. coli, K. pneumoniae, and C. freundii, or II) RpsL K43→R; GyrA T83→I; ParC S83→L; RpoB D521→V, or a premature STOP codon into nfxB for P. aeruginosa. Oligo-mediated recombineering was performed as described above on all bacterial strains. After recovery overnight, cells were plated at empirically-determined dilutions to a density of 200-500 colonies per plate. In the case of LacZ screening, plating was assayed on MacConkey agar plates or on X-Gal/IPTG LB^L agar plates in the case of K. pneumoniae. In the case of selective antibiotic screening, cultures were plated onto both selective and non-selective plates. Selective antibiotic concentrations used were the same as those described for the selective testing above, except that in P. aeruginosa 100 μg/ml STR and 1.5 μg/ml CIP were used unless otherwise noted. Variants that were resistant to multiple antibiotics were selected on LB^L agar plates that contained the combination of all corresponding antibiotics. Non-selective plates were antibiotic-free LB^L agar plates. In all cases, allelic-replacement frequencies were calculated by dividing the number of recombinant CFUs by the number of total CFUs. Plasmid maintenance was ensured by supplementing all media and agar plates with either KAN (50 μg/ml) or GEN (20 μg/ml). Minimum Inhibitory Concentration (MIC) Measurement in P. aeruginosa

[1] = system: Pseudomonas aeruginosa PAO1; experiment: Recombineering efficiency by selective plating; type: cell-based
Description: To test the activity of PapRecT and CspRecT in these three organisms, the broad-host-range pORTMAGE system (Nyerges et al., Proc. Natl. Acad. Sci. U.S.A. 113, 2502-2507 (2016)) was built on as described above. For experiments in E. coli PapRecT or CspRecT was subcloned in place of Redβ into pORTMAGE311B (Szili et al., Antimicrob. Agents Chemother. AAC.00207-19 (2019) doi:10.1128/AAC.00207-19) (FIGS. 10A-10B; Addgene accession: #120418), which transiently disrupts MMR with EcMutL_E32K, and whose RSF1010 origin of replication and m-toluic-acid-based expression system allows the plasmid to be deployed over a broad range of bacterial hosts (Honda et al., Proc. Natl. Acad. Sci. U.S.A. 88, 179-183 (1991); Gawin et al., Microb. Biotechnol. 10, 702 (2017)). These same pORTMAGE-based constructs were used for testing in C. freundii and K. pneumoniae. […] It was found, however, that the efficiency of the plasmid construct was lower in P. aeruginosa than in the enterobacterial species that pORTMAGE was optimized for. Therefore, to increase editing efficiency in P. aeruginosa, i.) ribosomal binding sites (RBS) for PapRecT and EcMutL were optimized, ii.) EcMutL_E32K was replaced with its equivalent homologous mutant from P. aeruginosa (PaMutL_E36K), iii.) the native P. aeruginosa coding sequence for PapRecT was incorporated instead of the E. coli codon-optimized version (FIG. 13).
Virulent strains of P. aeruginosa are a frequent cause of acute infections in healthy individuals, as well as chronic infections in high-risk patients, such as those suffering from cystic fibrosis (Marvig et al., Nat. Genet. 47, 57-64 (2015)). The rate of antibiotic resistance in this species is growing, with strains adapting quickly to all clinically applied antibiotics (AbdulWahab et al., Lung India Off. Organ Indian Chest Soc. 34, 527-531 (2017); Tacconelli et al., Lancet Infect. Dis. 18, 318-327 (2018)). […] By genotyping and characterizing resistant colonies, the Minimum Inhibitory Concentration (MIC) of CIP for various resistant genotypes could be determined (Table 2, FIG. 14). […]

[2] = wild-type E. coli MG1655, pORTMAGE plasmid

Molecule | Editing efficiency, 18-bp consecutive mismatches into lacZ (E. coli) | Editing efficiency, 30-bp consecutive mismatches into lacZ (E. coli) | Editing performance in P. aeruginosa [1] | Editing performance in P. aeruginosa ([1]; listed as SSAP SEQ ID NO: 24) | Editing efficiency relative to other SSAPs (E. coli; E. coli, lambda pL promoter) | Editing efficiency, average over single-base mismatches (E. coli; [2]) | Editing efficiency, various single-base mismatches (E. coli; [2])
B1 | 3% | 1% | does not work | – | – | – | –
B2 | – | – | performed the best | functions at high efficiency | – | – | –
B3 | 6% | 3% | – | – | about double the efficiency of Redβ or SSAP SEQ ID NO: 24 | 43% | 35-51%

— patent publication US20220228157A1, “GENE EDITING IN DIVERSE BACTERIA” (priority 2019, published 2022)
